In the Immune Epitope Database (IEDB):

Key:
[1] = target: HLA-A*32:01; test: IEDB peptide-MHC binding, purified MHC/competitive/radioactivity; filed as Kd, often an IC50 or EC50 that approximates it; ≥ and ≤ were set here for values at or beyond the usual limits of such assays
[2] = target: HLA-A*30:01; test: as above
[3] = target: HLA-A*02:01; test: IEDB peptide-MHC binding, purified MHC/competitive/fluorescence; ≥ and ≤ were set here for values at or beyond the usual limits of such assays
[4] = target: HLA-A*03:01; test: IEDB peptide-MHC binding, purified MHC/direct/fluorescence; filed as Kd, often an IC50 or EC50 that approximates it; ≥ and ≤ were set here for values at or beyond the usual limits of such assays
[5] = target: HLA-A*11:01; test: as above
[6] = target: HLA-A*02:01; test: as above
[7] = target: HLA-A*69:01; test: as above
[8] = target: HLA-A*23:01; test: IEDB peptide-MHC binding, purified MHC/competitive/radioactivity; filed as Kd, often an IC50 or EC50 that approximates it; ≥ and ≤ were set here for values at or beyond the usual limits of such assays
[9] = target: HLA-A*24:02; test: as above
[10] = target: HLA-A*01:01; test: IEDB peptide-MHC binding, purified MHC/direct/fluorescence; filed as Kd, often an IC50 or EC50 that approximates it; ≥ and ≤ were set here for values at or beyond the usual limits of such assays; settings: source organism: Influenza A virus (A/chicken/Nanchang/7-010/2000(H3N6))
[11] = target: HLA-B*58:01; test: as above
[12] = target: HLA-A*31:01; test: as above
[13] = target: HLA-B*15:01; test: as above
[14] = target: HLA-B*40:01; test: as above; settings: source organism: Rickettsia prowazekii
[15] = target: HLA-B*40:01; test: IEDB peptide-MHC binding, purified MHC/competitive/radioactivity; filed as Kd, often an IC50 or EC50 that approximates it; ≥ and ≤ were set here for values at or beyond the usual limits of such assays
[16] = target: HLA-B*27:05; test: IEDB peptide-MHC binding, purified MHC/direct/fluorescence; filed as Kd, often an IC50 or EC50 that approximates it; ≥ and ≤ were set here for values at or beyond the usual limits of such assays; settings: source organism: SARS-CoV1
[17] = source organism: Dengue virus 3 Martinique/1243/1999
[18] = source organism: Dengue virus 1 Brazil/97-11/1997
[19] = source organism: Vaccinia virus WR
[20] = source organism: Francisella tularensis subsp. holarctica LVS
[21] = source organism: Dengue virus 2 Jamaica/1409/1983
[22] = source organism: Dengue virus 4 Philippines/H241/1956
[23] = source organism: Bacillus anthracis
[24] = source organism: Encephalitozoon cuniculi
[25] = source organism: Zaire ebolavirus
[26] = source organism: Mycobacterium tuberculosis
[27] = source organism: Rickettsia prowazekii
[28] = source organism: Sudan ebolavirus
[29] = source organism: Yersinia pestis Antiqua

Sequence: WRLSAQWQKG
- Kd [1, 17]: ≥ 36 µM

Sequence: DARTYSDPLA
- Kd [2, 18]: 0.924 µM

Sequence: IKHVGLITC
- IC50 [3, 19]: ≥ 622 µM

Sequence: GRLITANPVV
- Kd [2, 17]: 1.43 µM

Sequence: AVYSICKFY
- Kd [4, 20]: 0.297 µM
- Kd [5, 20]: 0.708 µM

Sequence: AGRLVRPFL
- Kd [2, 19]: 0.252 µM

Sequence: DTQGSNWIQK
- Kd [1, 21]: 0.267 µM

Sequence: DEAHFTDPSS
- Kd [2, 22]: 0.165 µM

Sequence: GLFPVSIPIT
- Kd ([2]; source organism: Dengue virus 2 Peru/IQT2913/1996): 15.9 µM

Sequence: DSMFLMTAT
- IC50 ([3]; source organism: Variola virus): 4.4 µM

Sequence: EQDGITYYL
- Kd [6, 23]: ≥ 20 µM
- Kd [7, 23]: 0.0125 µM

Sequence: RQWFFDLPLP
- Kd [2, 17]: 10.8 µM

Sequence: PYMPSVVETL
- Kd [8, 18]: 0.0322 µM
- Kd [9, 18]: 0.0319 µM

Sequence: YVILTILTI
- Kd [9, 22]: 6.01 µM

Sequence: WYMWLGARYL
- Kd [8, 17]: 0.0182 µM
- Kd [9, 17]: 0.0178 µM

Sequence: AAIGKAWEEG
- Kd ([1]; source organism: Dengue virus 1 Singapore/S275/1990): ≥ 69.9 µM

Sequence: YLVPGEGEQ
- Kd [6, 24]: 7 µM
- Kd [7, 24]: ≥ 20 µM

Sequence: RLFARTGLE
- Kd ([4]; source organism: Burkholderia ambifaria AMMD): 0.748 µM

Sequence: STASDTPSA
- IC50 [3, 25]: 12.2 µM

Sequence: LFSYGTLII
- IC50 ([3]; source organism: Variola virus): ≥ 72.6 µM

Sequence: NYRPGYFTQ
- Kd [9, 18]: ≥ 44.4 µM

Sequence: KNFAGPVSQ
- Kd [1, 21]: ≥ 44.9 µM

Sequence: KALKINWYKK
- Kd ([1]; source organism: Dengue virus 3 Singapore/8120/1995): 8.04 µM

Sequence: RTKFQNRAK
- Kd [2, 19]: 0.000159 µM

Sequence: GRTLRVLKMV
- Kd [2, 18]: 0.634 µM

Sequence: RFGTSLLFL
- Kd ([9]; source organism: Dengue virus 4 Dominica/814669/1981): 0.673 µM

Sequence: SSEDLNGMI
- Kd [10]: ≥ 20 µM

Sequence: ISYGGGWRFQ
- Kd [1, 18]: ≥ 56.4 µM

Sequence: NLHYWTTQD
- IC50 [3, 25]: ≥ 124 µM

Sequence: KGGTGGWLW
- Kd ([11]; source organism: Mycobacterium tuberculosis str. Haarlem): 0.0433 µM

Sequence: KGRISYYEM
- Kd [2, 19]: 0.0144 µM

Sequence: MWKQITPEL
- Kd [8, 21]: 0.17 µM

Sequence: SILGIGTVL
- IC50 ([3]; source organism: Hepatitis C virus genotype 1): ≥ 100 µM

Sequence: YLPRFLFGV
- Kd [6, 26]: 0.0018 µM

Sequence: KIFEYGFTF
- Kd [6, 27]: 0.105 µM
- Kd [4, 27]: 6.02 µM
- Kd [5, 27]: 0.377 µM
- Kd [12, 27]: 0.196 µM
- Kd [7, 27]: 4.28 µM
- Kd [13, 27]: 0.229 µM
- Kd [14]: 4.35 µM
- Kd [11, 27]: 0.255 µM

Sequence: IAGVAGLIT
- IC50 [3, 25]: ≥ 205 µM

Sequence: GLITSTVTG
- IC50 [3, 28]: 12.4 µM

Sequence: GEGVLSKADL
- Kd [15, 17]: 0.0424 µM

Sequence: SQGRGWFLL
- Kd [6, 29]: 0.284 µM
- Kd [7, 29]: ≥ 20 µM

Sequence: TTFGRIGVK
- Kd [5, 26]: 0.002 µM

Sequence: IGESSSNPTI
- Kd [2, 22]: 7.34 µM

Sequence: IHDFIDNPL
- IC50 [3, 28]: ≥ 103 µM

Sequence: KTQEPPQVA
- Kd ([6]; source organism: Haemophilus influenzae): 7.07 µM

Sequence: KTALLIVSG
- Kd [1, 17]: 6.83 µM

Sequence: RQWFFDLPL
- Kd [1, 17]: 0.00117 µM
- Kd [15, 17]: 0.042 µM

Sequence: LLIHFLLSL
- Kd [1, 19]: ≥ 52.8 µM

Sequence: HLSNYIVSI
- Kd [1, 19]: 0.000986 µM

Sequence: HTLESPVEF
- Kd ([5]; source organism: SARS-CoV1): ≥ 53.9 µM
- Kd ([12]; source organism: SARS-CoV1): 1.4 µM
- Kd ([13]; source organism: SARS-CoV1): 1.44 µM
- Kd ([11]; source organism: SARS-CoV1): 0.0981 µM

Sequence: KIKSPIYYK
- Kd ([2]; source organism: Vaccinia virus Copenhagen): 0.000932 µM

Sequence: NYILWENNI
- Kd [8, 17]: 0.00603 µM
- Kd [9, 17]: 0.00285 µM

Sequence: NSTLEVTEI
- IC50 [3, 28]: ≥ 97.4 µM

Sequence: HTSARLHSL
- Kd [2, 19]: 0.00414 µM

Sequence: RARYKKMLK
- Kd [2, 19]: 0.00104 µM

Sequence: HSRASPRIG
- Kd [2, 19]: 0.000931 µM

Sequence: SRYWEPEFY
- Kd [16]: 1.19 µM

Sequence: RSGAYVSAI
- Kd [1, 21]: 0.378 µM

Sequence: VESWEEVPYL
- Kd [15, 21]: 0.041 µM

Sequence: PTVAPPAPV
- IC50 [3, 25]: ≥ 171 µM

Sequence: LSTRDGEPLM
- Kd [2, 22]: 1.63 µM

Sequence: KEENLVRSM
- Kd [15, 18]: 1.13 µM

Sequence: EVKTCTWPKS
- Kd [1, 17]: ≥ 48.4 µM

Sequence: GLRNSLLVA
- Kd [2, 19]: 0.0935 µM

Sequence: TIFTLTVAW
- Kd ([1]; source organism: Dengue virus 3 Sri Lanka/1266/2000): 0.157 µM

Sequence: GAKIGCINV
- Kd [2, 19]: 0.00911 µM

Sequence: GSTLAGVNV
- IC50 [3, 25]: ≥ 95 µM

Sequence: ILIDTSAWV
- Kd [7, 26]: 0.429 µM

Sequence: RQWFLDLPLP
- Kd [2, 21]: 11.6 µM

Sequence: SLGGVFTSI
- Kd [1, 21]: 0.294 µM

Sequence: VFGAIYGAAF
- Kd [8, 21]: 0.00448 µM
- Kd [9, 21]: 0.323 µM
